Test results published in patent publication US20230013244A1 (BioIncept, LLC, priority 2014, published 2023).

How the values were obtained:
[1] = target: Actin, cytoplasmic 1 (human) (UniProt P60709); test: PIF affinity column + LC-MS/MS, CD4+ cell lysate
[2] = target: Cartilage oligomeric matrix protein (human) (UniProt P49747); test: PIF affinity column + LC-MS/MS, CD4+ cell lysate
[3] = target: Thymosin alpha-1 (human) (UniProt P06454); test: PIF affinity column + LC-MS/MS, CD4+ cell lysate
[4] = target: Serum albumin (human) (UniProt P02768); test: PIF affinity column + LC-MS/MS, CD4+ cell lysate
[5] = target: Glucosidase 2 subunit beta (human) (UniProt P14314); test: PIF affinity column + LC-MS/MS, CD4+ cell lysate
Chain of Glucosidase 2 subunit beta (human) (P14314 other isoform, or with tags, fused parts or gaps limits assumed): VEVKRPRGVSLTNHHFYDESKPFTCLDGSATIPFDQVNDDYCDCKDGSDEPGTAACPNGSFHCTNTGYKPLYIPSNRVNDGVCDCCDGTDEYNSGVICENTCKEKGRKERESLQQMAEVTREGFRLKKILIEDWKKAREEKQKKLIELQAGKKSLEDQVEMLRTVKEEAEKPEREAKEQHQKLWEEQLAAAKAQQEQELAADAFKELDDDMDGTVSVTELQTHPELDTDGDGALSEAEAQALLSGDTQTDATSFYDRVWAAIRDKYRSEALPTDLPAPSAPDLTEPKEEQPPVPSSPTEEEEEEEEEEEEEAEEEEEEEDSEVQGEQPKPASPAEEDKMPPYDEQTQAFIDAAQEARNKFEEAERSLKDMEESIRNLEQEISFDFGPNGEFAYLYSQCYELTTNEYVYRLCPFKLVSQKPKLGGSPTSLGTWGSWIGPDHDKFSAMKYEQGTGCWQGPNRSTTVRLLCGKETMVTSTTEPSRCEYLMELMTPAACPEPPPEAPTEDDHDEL

[6] = target: Isoform 2 of Heat shock protein HSP 90-alpha (human) (UniProt P07900); test: PIF affinity column + LC-MS/MS, CD4+ cell lysate
[7] = target: Serine/arginine-rich-splicing factor 2 (human) (UniProt Q01130); test: PIF affinity column + LC-MS/MS, CD4+ cell lysate
[8] = target: Isoform 2 of Protein SET (human) (UniProt Q01105); test: PIF affinity column + LC-MS/MS, CD4+ cell lysate
Chain of Isoform 2 of Protein SET (human) (Q01105 other isoform, or with tags, fused parts or gaps limits assumed): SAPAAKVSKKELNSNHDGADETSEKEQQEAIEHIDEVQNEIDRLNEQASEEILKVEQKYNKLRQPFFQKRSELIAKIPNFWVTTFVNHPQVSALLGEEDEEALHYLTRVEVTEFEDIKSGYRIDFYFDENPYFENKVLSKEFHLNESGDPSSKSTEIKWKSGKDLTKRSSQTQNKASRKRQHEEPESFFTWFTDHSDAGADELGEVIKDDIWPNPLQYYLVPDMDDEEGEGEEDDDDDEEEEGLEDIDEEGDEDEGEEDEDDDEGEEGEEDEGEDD

[9] = target: Calreticulin (human) (UniProt P27797); test: PIF affinity column + LC-MS/MS, CD4+ cell lysate
Chain of Calreticulin (human) (P27797 18-417 limits assumed): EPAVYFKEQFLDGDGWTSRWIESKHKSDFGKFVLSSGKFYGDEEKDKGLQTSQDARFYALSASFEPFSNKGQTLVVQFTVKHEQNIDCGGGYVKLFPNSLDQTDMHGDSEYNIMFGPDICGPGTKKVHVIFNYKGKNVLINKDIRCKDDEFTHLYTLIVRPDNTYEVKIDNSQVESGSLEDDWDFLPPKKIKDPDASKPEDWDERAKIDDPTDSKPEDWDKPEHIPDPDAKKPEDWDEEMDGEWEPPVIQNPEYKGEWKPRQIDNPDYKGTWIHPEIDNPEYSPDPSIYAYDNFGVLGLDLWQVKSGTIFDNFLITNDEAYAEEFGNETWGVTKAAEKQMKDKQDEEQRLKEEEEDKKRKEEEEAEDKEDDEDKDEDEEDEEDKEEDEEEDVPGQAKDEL

[10] = target: Acidic leucine-rich nuclear phosphoprotein 32 family member A (human) (UniProt P39687); test: PIF affinity column + LC-MS/MS, CD4+ cell lysate
Chain of Acidic leucine-rich nuclear phosphoprotein 32 family member A (human) (P39687 whole entry): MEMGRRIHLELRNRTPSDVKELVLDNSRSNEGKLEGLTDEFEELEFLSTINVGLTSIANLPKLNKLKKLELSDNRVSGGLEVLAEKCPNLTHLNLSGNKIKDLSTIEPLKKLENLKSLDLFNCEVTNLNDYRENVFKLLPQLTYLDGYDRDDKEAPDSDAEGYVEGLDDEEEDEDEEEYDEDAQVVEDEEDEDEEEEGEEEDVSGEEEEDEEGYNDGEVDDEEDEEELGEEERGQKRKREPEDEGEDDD

[11] = target: Tropomyosin alpha-4 chain (human) (UniProt P67936); test: PIF affinity column + LC-MS/MS, CD4+ cell lysate
Chain of Tropomyosin alpha-4 chain (human) (P67936 2-248 limits assumed): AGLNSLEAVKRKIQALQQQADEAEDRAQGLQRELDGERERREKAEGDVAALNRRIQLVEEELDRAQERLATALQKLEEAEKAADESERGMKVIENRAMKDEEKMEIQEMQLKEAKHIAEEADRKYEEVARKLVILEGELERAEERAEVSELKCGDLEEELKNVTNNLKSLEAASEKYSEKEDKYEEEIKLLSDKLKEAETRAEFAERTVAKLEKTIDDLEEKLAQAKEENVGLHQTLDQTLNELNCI

[12] = target: Cofilin-1 (human) (UniProt P23528); test: PIF affinity column + LC-MS/MS, CD4+ cell lysate
[13] = target: Actin, cytoplasmic 1 (human) (UniProt P60709); test: PIF affinity column + LC-MS/MS, CD8+ cell lysate
[14] = target: Tubulin alpha-1C chain (human) (UniProt Q9BQE3); test: PIF affinity column + LC-MS/MS, CD8+ cell lysate
[15] = target: Hepatoma-derived growth factor (human) (UniProt P51858); test: PIF affinity column + LC-MS/MS, CD8+ cell lysate
[16] = target: Thymosin alpha-1 (human) (UniProt P06454); test: PIF affinity column + LC-MS/MS, CD8+ cell lysate
[17] = target: Talin-1 (human) (UniProt Q9Y490); test: PIF affinity column + LC-MS/MS, CD8+ cell lysate
Chain of Talin-1 (human) (Q9Y490 whole entry): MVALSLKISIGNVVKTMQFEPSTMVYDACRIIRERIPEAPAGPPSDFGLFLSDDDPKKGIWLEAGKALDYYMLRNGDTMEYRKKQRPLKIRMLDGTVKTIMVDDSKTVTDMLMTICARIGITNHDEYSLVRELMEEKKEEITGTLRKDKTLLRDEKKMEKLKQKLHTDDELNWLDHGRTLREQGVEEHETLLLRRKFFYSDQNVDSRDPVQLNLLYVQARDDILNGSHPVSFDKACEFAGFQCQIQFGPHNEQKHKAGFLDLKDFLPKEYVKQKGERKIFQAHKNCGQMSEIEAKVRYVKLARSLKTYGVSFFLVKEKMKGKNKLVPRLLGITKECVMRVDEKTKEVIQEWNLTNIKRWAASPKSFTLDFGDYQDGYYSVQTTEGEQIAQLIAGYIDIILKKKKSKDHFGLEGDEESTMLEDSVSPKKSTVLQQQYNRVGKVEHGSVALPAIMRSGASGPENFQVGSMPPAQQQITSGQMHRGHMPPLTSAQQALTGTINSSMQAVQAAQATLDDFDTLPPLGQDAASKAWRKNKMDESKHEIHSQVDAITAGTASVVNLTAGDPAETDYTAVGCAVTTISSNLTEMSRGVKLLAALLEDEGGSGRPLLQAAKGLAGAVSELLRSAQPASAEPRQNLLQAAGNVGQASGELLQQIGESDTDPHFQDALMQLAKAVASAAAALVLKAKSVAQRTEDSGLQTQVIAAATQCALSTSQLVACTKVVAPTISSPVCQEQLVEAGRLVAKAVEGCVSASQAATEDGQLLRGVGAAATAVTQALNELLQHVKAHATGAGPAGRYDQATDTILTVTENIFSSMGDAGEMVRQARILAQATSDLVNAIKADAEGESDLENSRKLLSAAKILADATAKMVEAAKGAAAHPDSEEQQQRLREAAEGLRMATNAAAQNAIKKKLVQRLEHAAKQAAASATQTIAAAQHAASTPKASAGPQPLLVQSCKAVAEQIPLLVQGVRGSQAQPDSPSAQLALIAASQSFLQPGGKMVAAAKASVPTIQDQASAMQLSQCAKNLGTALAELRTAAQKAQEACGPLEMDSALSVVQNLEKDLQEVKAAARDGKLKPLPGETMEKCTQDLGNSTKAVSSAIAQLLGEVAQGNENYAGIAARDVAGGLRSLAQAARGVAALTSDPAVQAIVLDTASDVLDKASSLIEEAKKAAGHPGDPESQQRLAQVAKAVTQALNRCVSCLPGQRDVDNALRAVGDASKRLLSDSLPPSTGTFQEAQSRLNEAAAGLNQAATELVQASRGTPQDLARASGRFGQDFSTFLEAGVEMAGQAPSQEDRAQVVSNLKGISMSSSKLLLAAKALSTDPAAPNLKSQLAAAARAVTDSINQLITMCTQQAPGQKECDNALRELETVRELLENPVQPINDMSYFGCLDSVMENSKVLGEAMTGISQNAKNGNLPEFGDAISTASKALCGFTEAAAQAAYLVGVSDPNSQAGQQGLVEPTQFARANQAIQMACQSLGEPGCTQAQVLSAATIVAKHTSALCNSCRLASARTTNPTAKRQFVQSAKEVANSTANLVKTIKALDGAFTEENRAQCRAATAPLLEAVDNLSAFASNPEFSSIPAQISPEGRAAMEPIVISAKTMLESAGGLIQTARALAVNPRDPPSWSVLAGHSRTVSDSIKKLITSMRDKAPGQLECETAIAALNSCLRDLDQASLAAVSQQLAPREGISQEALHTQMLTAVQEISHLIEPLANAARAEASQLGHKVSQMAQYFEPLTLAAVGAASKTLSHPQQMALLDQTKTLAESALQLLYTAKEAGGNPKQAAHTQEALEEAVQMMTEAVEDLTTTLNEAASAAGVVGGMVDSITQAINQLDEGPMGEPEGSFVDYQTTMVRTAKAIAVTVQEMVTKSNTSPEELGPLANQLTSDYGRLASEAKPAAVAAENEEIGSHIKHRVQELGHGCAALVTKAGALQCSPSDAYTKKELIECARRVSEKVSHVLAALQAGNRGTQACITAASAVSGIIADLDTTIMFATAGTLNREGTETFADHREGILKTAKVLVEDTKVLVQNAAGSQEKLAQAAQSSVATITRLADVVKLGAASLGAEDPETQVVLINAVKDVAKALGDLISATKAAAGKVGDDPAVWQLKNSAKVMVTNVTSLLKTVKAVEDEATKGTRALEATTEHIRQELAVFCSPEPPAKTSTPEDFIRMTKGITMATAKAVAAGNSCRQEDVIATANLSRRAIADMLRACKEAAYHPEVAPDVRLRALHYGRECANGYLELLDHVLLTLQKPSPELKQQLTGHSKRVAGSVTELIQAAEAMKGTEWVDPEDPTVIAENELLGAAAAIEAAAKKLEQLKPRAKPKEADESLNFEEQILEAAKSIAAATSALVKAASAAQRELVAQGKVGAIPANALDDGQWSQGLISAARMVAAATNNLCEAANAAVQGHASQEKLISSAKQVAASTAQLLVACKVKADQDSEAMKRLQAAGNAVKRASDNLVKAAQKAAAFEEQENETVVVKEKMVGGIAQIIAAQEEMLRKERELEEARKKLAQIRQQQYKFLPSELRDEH

[18] = target: Serum albumin (human) (UniProt P02768); test: PIF affinity column + LC-MS/MS, CD8+ cell lysate
[19] = target: Nuclease-sensitive element-binding protein 1 (Fragment) (human) (UniProt P67809); test: PIF affinity column + LC-MS/MS, CD8+ cell lysate
[20] = target: Isoform 2 of Protein SET (human) (UniProt Q01105); test: PIF affinity column + LC-MS/MS, CD8+ cell lysate
[21] = target: Serine/arginine-rich-splicing factor 1 (human) (UniProt Q07955); test: PIF affinity column + LC-MS/MS, CD8+ cell lysate
[22] = target: Cofilin-1 (human) (UniProt P23528); test: PIF affinity column + LC-MS/MS, CD8+ cell lysate
[23] = target: Protein S100-A8 (human) (UniProt P05109); test: PIF affinity column + LC-MS/MS, CD14+ cell lysate
[24] = target: Thrombospondin-1 (human) (UniProt P07996); test: PIF affinity column + LC-MS/MS, CD14+ cell lysate
[25] = target: Isoform SV of 14-3-3 protein epsilon (human) (UniProt P62258); test: PIF affinity column + LC-MS/MS, CD14+ cell lysate
[26] = target: 14-3-3 protein zeta/delta (human) (UniProt P63104); test: PIF affinity column + LC-MS/MS, CD14+ cell lysate
Chain of 14-3-3 protein zeta/delta (human) (P63104 whole entry, stated change not applied): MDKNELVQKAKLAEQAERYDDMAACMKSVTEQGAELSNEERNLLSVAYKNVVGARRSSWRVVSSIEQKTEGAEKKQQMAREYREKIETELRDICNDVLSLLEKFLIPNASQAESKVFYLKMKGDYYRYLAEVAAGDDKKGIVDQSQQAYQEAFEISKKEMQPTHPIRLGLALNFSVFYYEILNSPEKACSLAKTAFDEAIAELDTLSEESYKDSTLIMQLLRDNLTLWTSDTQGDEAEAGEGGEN

[27] = target: Tropomodulin-3 (human) (UniProt Q9NYL9); test: PIF affinity column + LC-MS/MS, CD14+ cell lysate
Chain of Tropomodulin-3 (human) (Q9NYL9 whole entry): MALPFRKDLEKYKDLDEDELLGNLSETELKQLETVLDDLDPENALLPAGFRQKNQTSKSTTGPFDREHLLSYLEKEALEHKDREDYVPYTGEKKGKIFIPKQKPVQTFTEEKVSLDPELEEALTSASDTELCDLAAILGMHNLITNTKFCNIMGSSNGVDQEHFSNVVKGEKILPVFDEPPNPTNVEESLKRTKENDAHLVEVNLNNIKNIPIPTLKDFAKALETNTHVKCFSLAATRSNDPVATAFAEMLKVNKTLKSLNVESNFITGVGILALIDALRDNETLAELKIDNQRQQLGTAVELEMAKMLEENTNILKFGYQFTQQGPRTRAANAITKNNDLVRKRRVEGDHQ

[28] = target: Gelsolin (human) (UniProt P06396); test: PIF affinity column + LC-MS/MS, CD14+ cell lysate

Chain of Thymosin alpha-1 (human) (P06454 other isoform, or with tags, fused parts or gaps limits assumed): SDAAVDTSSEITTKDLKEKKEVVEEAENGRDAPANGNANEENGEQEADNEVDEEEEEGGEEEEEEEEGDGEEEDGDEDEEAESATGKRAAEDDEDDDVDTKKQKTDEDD

PIF-resin (PIF15 affinity ligand on agarose) (peptide)
Ave [1]: 2
Inject 1 [1]: 2
Inject 2 [1]: 2
Inject 3 [1]: 2
Ave [2]: 10
Inject 1 [2]: 10
Inject 2 [2]: 10
Inject 3 [2]: 11
Ave [3]: 5
Inject 1 [3]: 4
Inject 2 [3]: 5
Ave [4]: 8
Inject 1 [4]: 4
Inject 3 [4]: 12
Ave [5]: 1
Inject 1 [5]: 1
Inject 2 [5]: 1
Inject 3 [5]: 1
Ave [6]: 4
Inject 1 [6]: 4
Inject 2 [6]: 4
Inject 3 [6]: 4
Inject 1 [7]: 1
Ave [8]: 4
Inject 2 [8]: 4
Inject 3 [8]: 4
Ave [9]: 4
Inject 1 [9]: 4
Inject 2 [9]: 4
Inject 3 [9]: 4
Ave [10]: 1
Inject 1 [10]: 1
Inject 2 [10]: 1
Inject 3 [10]: 1
Ave [11]: 4
Inject 1 [11]: 4
Inject 2 [11]: 4
Inject 3 [11]: 4
Ave [12]: 1
Inject 1 [12]: 1
Inject 2 [12]: 1
Inject 3 [12]: 1
Ave [13]: 3
Inject 1 [13]: 3
Inject 2 [13]: 3
Inject 3 [13]: 3
Ave [14]: 1
Inject 1 [14]: 1
Inject 2 [14]: 1
Inject 3 [14]: 1
Ave [15]: 1
Inject 1 [15]: 1
Inject 2 [15]: 1
Inject 3 [15]: 1
Inject 3 [16]: 4
Ave [17]: 1
Inject 1 [17]: 1
Inject 2 [17]: 1
Inject 3 [17]: 1
Inject 3 [18]: 8
Ave [19]: 1
Inject 1 [19]: 1
Inject 2 [19]: 1
Inject 3 [19]: 1
Ave [20]: 1
Inject 1 [20]: 1
Inject 2 [20]: 1
Inject 3 [20]: 1
Ave [21]: 1
Inject 1 [21]: 1
Inject 2 [21]: 1
Inject 3 [21]: 1
Ave [22]: 1
Inject 1 [22]: 1
Inject 2 [22]: 1
Inject 3 [22]: 1
Inject 2 [23]: 1
Inject 2 [24]: 5
Inject 3 [24]: 8
Inject 1 [25]: 4
Inject 2 [25]: 4
Ave [26]: 4
Inject 1 [26]: 4
Inject 3 [26]: 4
Ave [27]: 1
Inject 1 [27]: 1
Inject 3 [27]: 1
Inject 2 [28]: 1
Inject 3 [28]: 1
